Five molecules from patent US20120121596A1 (published 2012) can be followed below.

Substitutions are numbered along the chain they refer to.

Assay [1] concerns the target T1, monomeric human HER3-ecd (Example 9) (human, UniProt P21860 20-643).
T1 construct: extracellular domain
Kind of assay: SPR, both experiments; reference: affinity for EGFR. Background: In SPR one partner is held on a chip, and binding of the other changes the refractive index at the surface.

The target of assay [2] is HER3 on cells (MCF7 cells; MDA-175 cells) (UniProt P21860 20-1342, limits assumed). Kind of assay: cell-based or functional assay.
Assay [3] concerns the target T1, monomeric human HER3-ecd (Example 9). Description: SPR BIAcore 2000, DL11f human IgG1 immobilized on CM5, monomeric ecd analyte 0.244-250 nM, 25 C.
For assay [4], the target named is T2, monomeric human EGFR-ecd (Example 9) (human, UniProt P00533 25-637).
T2 construct: range 1-637
The description is as above.

In assay [5] the target is T3, human EGFR-Fc (Example 9) (human, UniProt P00533 25-637).
T3 construct: range 1-637; Produced in CHO cells, protein A purified; also called Recombinant human EGFR-IgG1; not shown: Fc region of human IgG1
Kind of assay: SPR BIAcore 2000, Fc fusion captured on CM5 with human Antibody Capture Kit, Fab analyte 0.244-250 nM, 25 C, 1:1 Langmuir.

Assay [6] addresses T4, human HER3-Fc (Example 9) (human, UniProt P21860 20-640).
T4 construct: range 1-640; Produced in CHO cells, protein A purified; also called human HER3-IgG1; not shown: Fc region of human IgG1
The assay is described as above.

The target in assay [7] is T4, human HER3-Fc (Example 9). Kind of assay: SPR, both experiments; reference: affinity for EGFR.
Assay [8] deals with T5, hEGFR-ECD (human, UniProt P00533 25-645).
T5 construct: extracellular domain
Kind of assay: phage solution binding competition ELISA as in Example 1, antigen in solution varied.

Assay [9] has as its target T6, HER3-ECD-Fc (human, UniProt P21860 20-643, limits assumed).
T6 construct: extracellular domain; also called HER3-FC; HER3-IgG
Kind of assay: phage solution binding competition ELISA; experiment of paragraph 433 (compared with DL3.1-3.7). For orientation: An ELISA detects its analyte on a solid surface through an enzyme-linked reagent.

In assay [10] the target is T6, HER3-ECD-Fc. Kind of assay: phage solution binding competition ELISA as in Example 1, antigen in solution varied; experiment of paragraph 431 (compared with DL7 and DL11).
The target in another assay is T7, BSA (bovine, UniProt P02769).
T7 construct: also called bovine serum albumin
T7 sequence (P02769 25-607 limits assumed): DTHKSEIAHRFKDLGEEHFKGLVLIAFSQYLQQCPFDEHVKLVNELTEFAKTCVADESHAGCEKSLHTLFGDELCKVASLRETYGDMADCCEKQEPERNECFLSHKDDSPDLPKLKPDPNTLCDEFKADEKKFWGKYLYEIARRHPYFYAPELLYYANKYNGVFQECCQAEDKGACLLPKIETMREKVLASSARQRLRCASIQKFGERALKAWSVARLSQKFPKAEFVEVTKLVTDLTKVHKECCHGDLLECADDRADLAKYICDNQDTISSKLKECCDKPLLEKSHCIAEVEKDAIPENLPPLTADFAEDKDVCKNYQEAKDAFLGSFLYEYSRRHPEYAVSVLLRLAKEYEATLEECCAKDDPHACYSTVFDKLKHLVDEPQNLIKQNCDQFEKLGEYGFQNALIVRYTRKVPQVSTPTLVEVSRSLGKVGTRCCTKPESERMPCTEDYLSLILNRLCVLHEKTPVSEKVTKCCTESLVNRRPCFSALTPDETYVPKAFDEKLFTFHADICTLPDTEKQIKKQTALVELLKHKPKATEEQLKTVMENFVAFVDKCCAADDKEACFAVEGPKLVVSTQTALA
Kind of assay: direct phage ELISA, proteins coated at 2 µg/ml, phage-Fab supernatant, OD450.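 Further: specificity test of dual-activity clones, with binding assessed across an antigen panel to check whether each recognises only its cognate target.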

The target of a further assay is T8, HER2-ECD (human, UniProt P04626 23-652).
T8 construct: extracellular domain
The assay is described as above.

In another assay the target is T9, HER4-ECD-Fc (human, UniProt Q15303 26-651, limits assumed).
T9 construct: extracellular domain
T9 sequence (looked up): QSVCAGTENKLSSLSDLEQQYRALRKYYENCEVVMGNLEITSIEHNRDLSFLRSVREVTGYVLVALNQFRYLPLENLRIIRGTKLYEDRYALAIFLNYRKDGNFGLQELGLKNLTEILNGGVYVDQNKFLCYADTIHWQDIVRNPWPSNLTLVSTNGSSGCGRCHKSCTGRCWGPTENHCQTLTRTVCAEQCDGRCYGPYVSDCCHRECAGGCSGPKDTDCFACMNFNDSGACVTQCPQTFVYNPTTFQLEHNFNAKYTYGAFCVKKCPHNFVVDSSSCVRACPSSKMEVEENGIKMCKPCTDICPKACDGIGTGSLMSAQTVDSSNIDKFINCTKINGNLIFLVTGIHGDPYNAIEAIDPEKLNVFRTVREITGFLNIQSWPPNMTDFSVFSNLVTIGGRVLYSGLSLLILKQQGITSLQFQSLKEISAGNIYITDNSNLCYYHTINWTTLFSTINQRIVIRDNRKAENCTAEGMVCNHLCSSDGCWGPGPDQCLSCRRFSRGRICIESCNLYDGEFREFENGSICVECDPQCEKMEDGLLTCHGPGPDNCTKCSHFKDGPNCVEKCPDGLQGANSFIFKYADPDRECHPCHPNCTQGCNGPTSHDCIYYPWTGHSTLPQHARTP
The description is as above.

For assay [11], the target named is T5, hEGFR-ECD. Description: phage solution binding competition ELISA: hEGFR-ECD in solution varied, unbound phage captured on antigen-coated plate.
Assay [12] has as its target T6, HER3-ECD-Fc. Description: direct phage ELISA, proteins coated at 2 µg/ml, phage-Fab supernatant, OD450.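 Further: specificity test of dual-activity clones, with binding assessed across an antigen panel to check whether each recognises only its cognate target.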
In the next assay the target is T10, Xolair.
T10 construct: not shown: the constant regions
The description is as above.

Assay [13] addresses T11, hEGFR-ECD-Fc (human EGFR extracellular domain fused to an Fc region of human IgG1) (human, UniProt P00533 25-645).
T11 construct: extracellular domain; not shown: Fc region of human IgG1
Kind of assay: phage ELISA of clones from plate selection.

For another assay, the target named is T12, Erbitux.
T12 construct: also called cetuximab; C225; not shown: the constant regions
Kind of assay: direct phage ELISA, proteins coated at 2 µg/ml, phage-Fab supernatant, OD450.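 Further: specificity test of dual-activity clones, with binding assessed across an antigen panel to check whether each recognises only its cognate target.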

For assay [14], the target named is T5, hEGFR-ECD. The assay is described as above.

B1: DL11f (human IgG1) (bispecific antibody, V domains shown)
VH: EVQLVESGGGLVQPGGSLRLSCAASGFTLSGDWIHWVRQAPGKGLEWVGEISAAGGYTDYADSVKGRFTISADTSKNTAYLQMNSLRAEDTAVYYCARESRVSFEAAMDYWGQGTLVTVSS
VL: DIQMTQSPSSLSASVGDRVTITCRASQNIATDVAWYQQKPGKAPKLLIYSASFLYSGVPSRFSGSGSGTDFTLTISSLQPEDFATYYCQQSEPEPYTFGQGTKVEIKR
Regarding B1, the “fold higher affinity for HER3 than for EGFR” value in [1] lay in the range of 5 to 8 fold. The “IC50 of inhibition of MDA-175 cell proliferation” value in assay [2] lay within 0.8 to 1 µg/mL. For the same molecule, the Kd (usually the concentration at which binding is half-saturated) came out at 2.63 nM in assay [3] and 19.9 nM in assay [4].

B2: DL11f Fab (Fab, V domains shown)
VH: B1 VH
VL: B1 VL
As to B2, the Kd in assay [5] is 1.92 nM; in [6], 0.39 nM. The “fold higher affinity for HER3 than for EGFR” value in assay [7] fell in the range of 5 to 8 fold.

B3: D1.5-100 (phage-displayed Fab clone) (Fab, V domains shown)
VH: B1 VH with L29F, S30T, D32N, A53P, A54S, F104Y
VL: B1 VL with N28D, I29L
notes: also called DL1.5-100
On to B3, for which the IC50 – broadly, the concentration that gives 50% inhibition – with hEGFR-ECD [8] came to 44 nM; with HER3-ECD-Fc [9] it was 4.6 nM; in the assay with HER3-ECD-Fc [10], 0.1 nM. Further, the binding result with BSA, with HER2-ECD and with HER4-ECD-Fc was “no binding” each time.

B4: D1.5 (phage-displayed Fab clone) (Fab, V domains shown)
VH: B1 VH with L29F, S30T, D32N, A53P, A54S, F104Y
VL: B1 VL with N28D, I29V, A30S, D32A, E92Y, E94T
As to B4, the IC50 in the assay with hEGFR-ECD [11] is 0.39 nM. The binding result in the assay with BSA, with HER2-ECD, in the assay with HER3-ECD-Fc [12], with Xolair and in the assay with HER4-ECD-Fc was “no binding” throughout.

B5: D1.5-201 (phage-displayed Fab clone) (Fab, V domains shown)
VH: B1 VH with L29F, S30T, D32N, A53P, A54S, F104Y
VL: DIQMTQSPSSLSASVGDRVTITCRASQAVWGGYIAPVAWYQQKPGKAPKLLIYDGSYLYSGVPSRFSGSGSGTDFTLTISSLQPEDFATYYCQQRLPTPYTFGQGTKVEIKR
notes: EGFR/HER2 dual-specific clone from the D1.5 light chain library
Take B5: the binding result in [13] is “binds”; with Erbitux, “no binding”; with BSA, “no binding”; with HER2-ECD, “binds”; with hEGFR-ECD [14], “binds”; with HER3-ECD-Fc [12] it was “no binding”. Also, the binding result with HER4-ECD-Fc is recorded as “no binding”.
